This note sets out measurements from patent US20250144213A1 (UTC THERAPEUTICS SHANGHAI, published 2025).

The chains are these.
T1: BCMA-Fc recombinant protein (human, UniProt Q02223 1-54)
T1 construct: Soluble staining reagent, 5 µg/ml; not shown: Fc part
T1 sequence (looked up): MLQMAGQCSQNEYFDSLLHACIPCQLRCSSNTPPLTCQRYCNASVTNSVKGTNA

B1: anti-CD40 scFv 40-47 (in LACOSTIM 40-47.28) (scFv)
scFv: QSALTQPASVSGSPGQSITISCTGTSSDVGAYNYVSWYQQLPGKTPKLMIYDVTNRPSGVSNRFSGSKSGNTASLTISGLQAEDEAYYYCGSYTTSSTLIFGGGTELTVLGGGGSGGGGSGGGGSEVHLVESGGGLVQPGGSLRLSCAASGFTFSSNWMSWVRQAPGKGLEWVANINQDGSEKYYVDSVKGRFTISRDNAKNSLYLQLNSLRAEDTAEYYCARGGYRYAYWGQGTLVTVSS
notes: Tested on T cells as part of the LACOSTIM 40-47.28 (scFv fused with CD28), co-electroporated with the anti-Her2 CAR 4D5.BBZ; also called 40-47 scFv
B2: anti-CD40 scFv 40-37 (in LACOSTIM 40-37.28) (scFv)
scFv: SYELTQPPSVSVSPGQTASITCSGDKLGNKYASWYQQKPGQSPVLVIFQDSRRPSGIPERFSGSNSGNTATLTISGTQAMDEADYYCQAWDSSTALFGGGTKLTVLGGGGSGGGGSGGGGSQVQLVQSGGGVVQPGRSLRLSCAASGFTFSSYAMHWVRQAPGKGLEWVAVISKDGSYENYVDSVKGRLAISRDNSKNTLFLQMDSLRPEDTALYFCARDYWYGMDVWGQGTTVTVSS
notes: Tested on T cells as part of the LACOSTIM 40-37.28 (scFv fused with CD28), co-electroporated with the anti-Her2 CAR 4D5.BBZ; also called 40-37 scFv
B3: anti-CD40 scFv 40-52 (in LACOSTIM 40-52.28) (scFv)
scFv: QSALTQPPSASGSPGQSVTISCTGTSSDVGAYNFVSWYQQHPGNAPKLIIYDVRKRPSGIPDRFSASKSGNTASLTVSGLQADDEADYYCSSYAGNNNLVFGGGTKLTVLGGGGSGGGGSGGGGSQVQLVQSGAEVKKPGSSVKVSCKASGGTFSSYAISWVRQAPGQGLEWMGMINPSGGTTSYAQKFQGRVTMTRDTSTSTVYMELSSLRPEDTAVYYCARGFRMDQWGQGTLVTVSS
notes: Tested on T cells as part of the LACOSTIM 40-52.28 (scFv fused with CD28), co-electroporated with the anti-Her2 CAR 4D5.BBZ; also called 40-52 scFv
B4: anti-CD40 scFv 40-45 (in LACOSTIM 40-45.28) (scFv)
scFv: QSALTQPASVSGSPGQSITISCTGTSSDVGGYKYVSWYQQHPGKAPKLMIYDVSNRPSGVSNRFSGSKSGNTASLTISGLQAEDEADYYCSSYTSSSTPHVVFGGGTKVTVLGGGGSGGGGSGGGGSEVHLVESGGGVVQPGRSLRLSCAASGFPFSRYGMHWVRQAPGKGLEWVSYISSSGSTIYYADSVKGRFTISRDNSKNTVSLQMNSLRADDTAVYYCSRGTRPGITGRLGYWGQGTLVTVSS
notes: Tested on T cells as part of the LACOSTIM 40-45.28 (scFv fused with CD28), co-electroporated with the anti-Her2 CAR 4D5.BBZ; also called 40-45 scFv
B5: anti-BCMA scFv BCMA32 (scFv)
scFv: QSALTQPASVSGSPGQSITISCTGTSSDVGGYNYVSWYQQHPGKAPKLMIYDVSKRPSGVSNRFSGSKSGNTASLTISGLQAEDEADYYCSSYTSSSTVVFGGGTKLTVLGGGGSGGGGSGGGGSQVQLQESGAEVKKPGSSVKVSCKASGGTFSRYAISWVRQAPGQGLEWMGGIIPFFGTSDYAQKFQGRVTITADESTSTAYMDLSRLRSEDTAVYYCAVRVATTGTGFYYAMDVWGQGTTVTVSS
notes: also called BCMA32 scFv; BCMA32 CAR
B6: anti-BCMA scFv BCMA31 (scFv)
scFv: QSALTQPPSASGSPGQSVTISCTGTSSDVGTYNYVSWYQQHPGKAPKLMIYDVNQRPSGVPDRFSGSKSGNTASLTVSGLQAEDEADYYCSSYGGSNNLVFGGGTKVTVLGGGGSGGGGSGGGGSEVQLVESGGGLIQPGGSLRLSCAASGFTFSSYWMSWVRQSPGKGLEWVANIKPDGSDKYYVDSVKGRFTISRDNAKNSLDLQMNSLRGEDTAIYYCARGATTYGSWGQGTLVTVSS
notes: also called BCMA31 scFv; BCMA31 CAR

The target of one experiment is T2, CD40-Fc recombinant protein (human, UniProt P25942 21-193).
T2 construct: Soluble staining reagent; also called CD40-Fc protein; not shown: Fc part
T2 sequence (P25942 21-193 limits assumed): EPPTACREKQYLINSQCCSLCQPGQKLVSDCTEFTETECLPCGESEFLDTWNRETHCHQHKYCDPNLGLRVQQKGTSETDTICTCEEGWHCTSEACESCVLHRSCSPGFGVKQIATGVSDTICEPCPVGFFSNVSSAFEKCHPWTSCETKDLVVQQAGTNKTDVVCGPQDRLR
Put plainly: FACS staining of T cells expressing the anti-CD40 scFv-CD28 fusion with CD40-Fc protein (FIG. 64).
B1: the binding result was “binds”.

On to B2, for which the binding result is listed as “binds”. As to B3, the binding result is recorded as “binds”. With B4, the binding result is “binds”.

The target in a further experiment is T1, BCMA-Fc recombinant protein. Put plainly: flow cytometry: lentivirally transduced CAR-T cells stained with 5 µg/ml BCMA-Fc, detected with anti-human IgG Fc (FIG. 17B).
Consider B5, for which the binding result is “binds”.

In the case of B6, the binding result is on record as “binds”.
